B5: full-length Yar1 (Yar1-FL), SAXS sample (natural protein, S. cerevisiae, UniProt P46683 1-200, looked up)
chain: MGLHSEPLDQEDQDTIILDARAGDLDSLKDIFTTLVSPELLSTCKESESDSTALHMAAANGHIETVRYILETVSRANSAEDLKAFVNEVNKTGNTALHWASLNGKLDVVKLLCDEYEADPFIRNKFGHDAIFEAENSGKEEVETYFLKKYDVEPEDDEEDTQTEGKNSVQITKGTEIEQVTKEATEALREETEKLNINKD
notes: Yar1, ankyrin-repeat protein, S. cerevisiae, full-length; modelled as Yar1 (1-214 including tag; 14 N-terminal residues from the His-tag); not shown: His-tag, N-terminal, kept
B6: full-length Rps3 (ribosomal protein S3), SAXS sample (natural protein, S. cerevisiae, UniProt P05750 1-240, looked up)
chain: MVALISKKRKLVADGVFYAELNEFFTRELAEEGYSGVEVRVTPTKTEVIIRATRTQDVLGENGRRINELTLLVQKRFKYAPGTIVLYAERVQDRGLSAVAQAESMKFKLLNGLAIRRAAYGVVRYVMESGAKGCEVVVSGKLRAARAKAMKFADGFLIHSGQPVNDFIDTATRHVLMRQGVLGIKVKIMRDPAKSRTGPKALPDAVTIIEPKEEEPILAPSVKDYRPAEETEAQAEPVEA
notes: Rps3, S. cerevisiae, full-length; modelled as Rps3 (1-249 including tag); How the SAXS samples were produced is not described; the methods describe His6-tagged proteins from E. coli BL21 (DE3) Rosetta Star in general; also called r-protein S3

Legend:
[1] = target: T1, Enp1-Flag-TEV-ProteinA (Enp1-FPA) (S. cerevisiae, UniProt P38333 1-483); experiment: pull-down; in vitro competition: purified His6-Rps3/Yar1 complex immobilized on Ni-NTA agarose, incubated with buffer or an ∼6-fold molar excess (over Rps3) of purified Ltv1-Flag and/or Enp1-FPA; supernatants and eluates by Coomassie or western blot; conditions: both partners purified
T1 construct: Enp1, S. cerevisiae; A TEV site lies between Flag and Protein A; expressed from pET15b; source: E. coli, purified (anti-Flag agarose); not shown: Flag, C-terminal, kept; Protein A, C-terminal, kept
T1 sequence (looked up): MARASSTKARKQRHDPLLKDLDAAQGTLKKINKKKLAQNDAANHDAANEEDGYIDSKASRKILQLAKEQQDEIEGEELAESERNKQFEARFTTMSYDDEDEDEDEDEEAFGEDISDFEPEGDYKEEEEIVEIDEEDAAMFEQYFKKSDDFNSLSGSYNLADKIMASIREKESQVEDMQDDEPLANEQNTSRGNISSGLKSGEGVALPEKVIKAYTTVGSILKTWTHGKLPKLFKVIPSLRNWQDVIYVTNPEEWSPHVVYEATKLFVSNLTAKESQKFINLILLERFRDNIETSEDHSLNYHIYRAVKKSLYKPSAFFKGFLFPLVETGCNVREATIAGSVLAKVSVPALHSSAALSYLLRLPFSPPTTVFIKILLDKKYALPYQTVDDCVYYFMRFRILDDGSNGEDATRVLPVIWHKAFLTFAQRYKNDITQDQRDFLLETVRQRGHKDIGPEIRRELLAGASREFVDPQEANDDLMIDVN

[2] = target: B5; experiment: SAXS; small-angle X-ray scattering in solution, direct injection or size exclusion separation before data collection; Tris-HCl 50 mM and NaCl 200 mM, pH 7.5; Rps3 constructs measured in complex with Yar1 constructs; conditions: both partners purified
Yar1 core (8-153) = target: T2, Yar1 core (8-153) (S. cerevisiae, UniProt P46683 8-153); experiment: as above; conditions: both partners purified
T2 construct: Yar1, S. cerevisiae, structural core lacking the N- and C-terminal extensions, residues 8-153; also called Yar1 structural core; Yar1(8-153)
T2 sequence (looked up): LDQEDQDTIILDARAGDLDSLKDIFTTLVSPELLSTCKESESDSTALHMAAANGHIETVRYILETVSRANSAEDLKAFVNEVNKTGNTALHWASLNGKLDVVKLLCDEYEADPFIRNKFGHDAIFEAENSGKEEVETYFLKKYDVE

His6-Rps3 [3] = target: T3, His6-Rps3 (S. cerevisiae, UniProt P05750 1-240); experiment: pull-down; in vitro competition: purified His6-Rps3/Yar1 complex immobilized on Ni-NTA agarose, incubated with buffer or an ∼6-fold molar excess (over Rps3) of purified Ltv1-Flag and/or Enp1-FPA; supernatants and eluates by Coomassie or western blot; conditions: both partners purified
T3 construct: Rps3, S. cerevisiae; expressed from pETDuet-1; source: E. coli BL21 (DE3) Rosetta Star, purified (Ni-NTA agarose) in complex with Yar1 or with Ltv1-Flag; not shown: His6, N-terminal, kept
T3 sequence (looked up): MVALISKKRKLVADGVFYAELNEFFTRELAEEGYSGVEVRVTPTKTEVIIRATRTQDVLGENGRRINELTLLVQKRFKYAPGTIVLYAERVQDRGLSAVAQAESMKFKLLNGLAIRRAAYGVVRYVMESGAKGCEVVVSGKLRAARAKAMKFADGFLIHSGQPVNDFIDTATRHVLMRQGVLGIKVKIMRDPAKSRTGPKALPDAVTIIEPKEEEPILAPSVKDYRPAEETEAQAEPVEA

His6-Rps3 [4] = target: T3, His6-Rps3; experiment: pull-down; in vitro competition: purified His6-Rps3/Ltv1-Flag complex immobilized on Ni-NTA agarose, incubated with buffer or an ∼1.5-fold or 6-fold molar excess of purified Flag-Yar1; eluates and supernatants by Coomassie or western blot; conditions: both partners purified
[5] = target: B6; experiment: SAXS; small-angle X-ray scattering in solution, direct injection or size exclusion separation before data collection; Tris-HCl 50 mM and NaCl 200 mM, pH 7.5; Rps3 constructs measured in complex with Yar1 constructs; conditions: both partners purified
[6] = target: the molecule itself; experiment: as above

B1: Ltv1-Flag (natural protein, S. cerevisiae, UniProt P34078 1-463, looked up)
chain: MSKKFSSKNSQRYVVVHRPHDDPSFYDTDASAHVLVPVSNPNKTSPEADLRKKDVSSTKPKGRRAHVGEAALYGINFDDSEYDYTQHLKPIGLDPENSIFIASKGNEQKVEKKNIEDLFIEPKYRRDEIEKDDALPVFQRGMAKPEYLLHQQDTTDEIRGFKPDMNPALREVLEALEDEAYVVNDDVVVEDISKKTQLQGDNYGEEEKEDDIFAQLLGSGEAKDEDEFEDEFDEWDIDNVENFEDENYVKEMAQFDNIENLEDLENIDYQADVRRFQKDNSILEKHNSDDEFSNAGLDSVNPSEEEDVLGELPSIQDKSKTGKKKRKSRQKKGAMSDVSGFSMSSSAIARTETMTVLDDQYDQIINGYENYEEELEEDEEQNYQPFDMSAERSDFESMLDDFLDNYELESGGRKLAKKDKEIERLKEAADEVSKGKLSQRRNRERQEKKKLEKVTNTLSSLKF
notes: Ltv1, S. cerevisiae; expressed from pET15b; source: E. coli, purified (anti-Flag agarose); also co-expressed in E. coli with His6-Rps20 (in lysate) and purified in complex with His6-Rps3; not shown: Flag, C-terminal, kept
[1]
  binding result: binds

B2: Rps3 N-domain (1-95) (domain or fragment, S. cerevisiae, UniProt P05750 1-95, looked up)
chain: MVALISKKRKLVADGVFYAELNEFFTRELAEEGYSGVEVRVTPTKTEVIIRATRTQDVLGENGRRINELTLLVQKRFKYAPGTIVLYAERVQDRG
notes: Rps3, S. cerevisiae, N-domain, residues 1-95
[2]
  binding result: binds
Yar1 core (8-153)
  binding result: binds

B3: Yar1 of the purified His6-Rps3/Yar1 complex (natural protein, S. cerevisiae, UniProt P46683 1-200, looked up)
chain: MGLHSEPLDQEDQDTIILDARAGDLDSLKDIFTTLVSPELLSTCKESESDSTALHMAAANGHIETVRYILETVSRANSAEDLKAFVNEVNKTGNTALHWASLNGKLDVVKLLCDEYEADPFIRNKFGHDAIFEAENSGKEEVETYFLKKYDVEPEDDEEDTQTEGKNSVQITKGTEIEQVTKEATEALREETEKLNINKD
notes: Yar1, S. cerevisiae; No tag is named for Yar1 in this complex; source: E. coli BL21 (DE3) Rosetta Star, purified in complex with His6-Rps3 (Ni-NTA agarose)
His6-Rps3 [3]
  binding result: binds

B4: Flag-Yar1 (natural protein, S. cerevisiae, UniProt P46683 1-200, looked up)
chain: MGLHSEPLDQEDQDTIILDARAGDLDSLKDIFTTLVSPELLSTCKESESDSTALHMAAANGHIETVRYILETVSRANSAEDLKAFVNEVNKTGNTALHWASLNGKLDVVKLLCDEYEADPFIRNKFGHDAIFEAENSGKEEVETYFLKKYDVEPEDDEEDTQTEGKNSVQITKGTEIEQVTKEATEALREETEKLNINKD
notes: Yar1, S. cerevisiae; expressed from pETDuet-1; source: E. coli, purified (anti-Flag agarose); not shown: Flag, N-terminal, kept
His6-Rps3 [4]
  binding result: binds

## B5
[5]
  binding result: binds

## B6
[6]
  stoichiometry N: 2
